Reference: US20230265179A1 (TWIST BIOSCIENCE, published 2023)

T1: CD40L (UniProt P29965 113-261, limits assumed)
T1 construct: SPR analyte
T1 sequence (looked up): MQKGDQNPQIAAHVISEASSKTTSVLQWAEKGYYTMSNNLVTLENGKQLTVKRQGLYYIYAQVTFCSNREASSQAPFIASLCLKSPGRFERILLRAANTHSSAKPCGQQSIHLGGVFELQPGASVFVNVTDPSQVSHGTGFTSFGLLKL

T2: CD40L over-expressed on Expi293 cells (UniProt P29965 1-261, limits assumed)
T2 construct: whole, on cells; also called cytokine over-expressing Expi293 cells
T2 sequence (looked up): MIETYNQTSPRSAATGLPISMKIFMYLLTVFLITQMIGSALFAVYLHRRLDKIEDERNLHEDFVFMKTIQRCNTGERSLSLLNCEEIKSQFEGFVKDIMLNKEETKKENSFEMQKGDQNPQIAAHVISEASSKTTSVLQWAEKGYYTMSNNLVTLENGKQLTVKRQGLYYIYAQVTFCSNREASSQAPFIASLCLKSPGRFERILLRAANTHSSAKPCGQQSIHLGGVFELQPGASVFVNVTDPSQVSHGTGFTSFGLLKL


Columns and labels:
CD40L = target: T1, CD40L; test: SPR (Carterra LSA), antibody amine-coupled, 1:1 model
Method: SPR experiments were performed on a Carterra LSA SPR biosensor equipped with a HC30M chip at 25° C. in HBS-TE. Antibodies were diluted to 10 μg/mL and amine-coupled to the sensor chip by EDC/NHS activation, followed by ethanolamine HCl quenching. Increasing concentrations of analyte were flowed over the sensor chip in HBS-TE with 0.5 mg/mL BSA with 5-minute association and 15-minute dissociation. Following each injection cycle the surface was regenerated with 2× 30-second injections of IgG elution buffer (Thermo). Data were analyzed in Carterra's Kinetics Tool software with 1:1 binding model.

[1] = target: T2, CD40L over-expressed on Expi293 cells; test: flow cytometry, 100 nM antibody, CD40L-Expi293 vs parent Expi293 cells;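 further: ratio is the mean fluorescence intensity on CD40L-overexpressing Expi293 cells divided by the mean fluorescence intensity on parental Expi293 cells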
Method: All incubations and washes were in buffer containing PBS+1% BSA. MFI Ratio is defined by the mean fluorescence intensity (MFI) of the cytokine over-expressing Expi293 cell over the Expi293 parent cell. […] EC50 was calculated in GraphPad Prism.

Row | Binder | Kd (CD40L) [nM] | koff (CD40L) [s⁻¹] | kon (CD40L) [M⁻¹ s⁻¹] | 100 nM FACS (MFI Ratio) [1] [ratio]
1 | CD40L-9 (VHH) VHH: EVQLVESGGGLVQPGGSLRLSCAASGSGLSINAMGWFRQAPGKEREFVAVIYSSDGSTLYADSVKGRFTISADNSKNTAYLQMNSLKPEDTAVYYCAAEPYGSGSSLISEYDWGQGTLVTVSS | 1.13 | 0.000284 | 251000 | 21.1
2 | CD40L-12 (VHH) VHH: EVQLVESGGGLVQPGGSLRLSCAASGRSFSTYTMGWFRQAPGKEREFVAVIYTSDGANLYADSVKGRFTISADNSKNTAYLQMNSLKPEDTAVYYCAAETYGSGSSLMSEYDWGQGTLVTVSS | 1.03 | 0.000266 | 257000 | 46.2
3 | CD40L-17 (VHH) VHH: EVQLVESGGGLVQPGGSLRLSCAASGRTSNIYAMGWFRQAPGKEREFVAVIYSSDGSTLYADSVKGRFTISADNSKNTAYLQMNSLKPEDTAVYYCAAEPYGSGSSLMSEYDWGQGTLVTVSS | 2.32 | 0.000363 | 157000 | 45.6
4 | CD40L-18 (VHH) VHH: EVQLVESGGGLVQPGGSLRLSCAASGSISSVNAMGWFRQAPGKEREFIAVIYWRDGSSLYADSVKGRFTISADNSKNTAYLQMNSLKPEDTAVYYCAAEPYGSGSSLISEYDWGQGTLVTVSS | 1.77 | 0.000391 | 221000 | 29.8
5 | CD40L-27 (VHH) VHH: EVQLVESGGGLVQPGGSLRLSCAASGSISSIHAMGWFRQAPGKEREFIAVIYWRDGSSLYADSVKGRFTISADNSKNTAYLQMNSLKPEDTAVYYCAAEPYGSGSSLMSEYDWGQGTLVTVSS | 0.749 | 0.000155 | 207000 | 44.9
6 | CD40L-30 (VHH) VHH: EVQLVESGGGLVQPGGSLRLSCAASGNIFRINAMGWFRQAPGKEREFVAVIYSSDGSTLYADSVKGRFTISADNSKNTAYLQMNSLKPEDTAVYYCAAEPYGSGSSLISEYDWGQGTLVTVSS | 4.04 | 0.000633 | 157000 | 24.3
7 | CD40L-15 (VHH) VHH: EVQLVESGGGLVQPGGSLRLSCAASGFTFDDYDMGWFRQAPGKERELVASITSGGSTNYADSVKGRFTISADNSKNTAYLQMNSLKPEDTAVYYCAIPHGIDLYTFDWGQGTLVTVSS | 1.29 | 0.000384 | 299000 | 29
8 | CD40L-16 (VHH) VHH: EVQLVESGGGLVQPGGSLRLSCAASGRIFSTYFMGWFRQAPGKEREWISTVYSNGHTYYADSVKGRFTISADNSKNTAYLQMNSLKPEDTAVYYCAAWLNGGNRWGQGTLVTVSS | 7.93 | 0.000278 | 35100 | 47.8
9 | CD40L-52 (VHH) VHH: EVQLVESGGGLVQPGGSLRLSCAASGRIFSTYFMGWFRQAPGKEREWVSTIYSNGTPAYADSVKGRFTISADNSKNTAYLQMNSLKPEDTAVYYCAAWLNGGNRWGQGTLVTVSS | 7.56 | 0.000453 | 59900 | 91.9
10 | CD40L-19 (VHH) VHH: EVQLVESGGGLVQPGGSLRLSCAASGTITSAVFMGWFRQAPGKEREWVATISSHGLPVYADSVKGRFTISADNSKNTAYLQMNSLKPEDTAVYYCAIDEGMDYDGNFYDWGQGTLVTVSS | 6.72 | 0.00119 | 177000 | 1.9
11 | CD40L-20 (VHH) VHH: EVQLVESGGGLVQPGGSLRLSCAASGVITLDSNAMGWFRQAPGKEREFVAAITWDGGYTRYADSVKGRFTISADNSKNTAYLQMNSLKPEDTAVYYCAAEATFPTWNRGSEADYDWGQGTLVTVSS | 1.25 | 0.000271 | 217000 | 24.6
12 | CD40L-21 (VHH) VHH: EVQLVESGGGLVQPGGSLRLSCAASGRIFSTYFMGWFRQAPGKEREFVAASYTGGSGGSTVYADSVKGRFTISADNSKNTAYLQMNSLKPEDTAVYYCAAWLNGGNRWGQGTLVTVSS | 53.8 | 0.00083 | 15400 | 99.2
13 | CD40L-22 (VHH) VHH: EVQLVESGGGLVQPGGSLRLSCAASGVTLDDYAMGWFRQAPGKERELVAAITNGGITTHYADSVKGRFTISADNSKNTAYLQMNSLKPEDTAVYYCAADVGPTVKWGQGTLVTVSS | 1.02 | 0.000394 | 387000 | 47.6
14 | CD40L-59 (VHH) VHH: EVQLVESGGGLVQPGGSLRLSCAASGFTLDYYAMGWFRQAPGKERELVASISNGGLSTYYADSVKGRFTISADNSKNTAYLQMNSLKPEDTAVYYCAADVGPTVKWGQGTLVTVSS | 1.27 | 0.000315 | 248000 | 66.7
15 | CD40L-24 (VHH) VHH: EVQLVESGGGLVQPGGSLRLSCAASGGAFSVYAMGWFRQAPGKEREFLASISGSGGSTYYADSVKGRFTISADNSKNTAYLQMNSLKPEDTAVYYCARDGGTYGMDVWGQGTLVTVSS | 5.74 | 0.000824 | 143000 | 42.7
16 | CD40L-33 (VHH) VHH: EVQLVESGGGLVQPGGSLRLSCAASGNIFINNAMGWFRQAPGKEREFVASIEWDGGGAYYADSVKGRFTISADNSKNTAYLQMNSLKPEDTAVYYCARDGGTYGMDVWGQGTLVTVSS | 2.63 | 0.000546 | 208000 | 74.1
17 | CD40L-36 (VHH) VHH: EVQLVESGGGLVQPGGSLRLSCAASGFSLDDYAMGWFRQAPGKEREFVASVNWSGKDTYYADSVKGRFTISADNSKNTAYLQMNSLKPEDTAVYYCARDGGTYGMDVWGQGTLVTVSS | 0.819 | 0.000353 | 431000 | 59.2
18 | CD40L-25 (VHH) VHH: EVQLVESGGGLVQPGGSLRLSCAASGFTFSRYEMGWFRQAPGKEREFVAAVTEDGSINYADSVKGRFTISADNSKNTAYLQMNSLKPEDTAVYYCAAVYVSTWGNGYDWGQGTLVTVSS | 1.2 | 0.000176 | 147000 | 93.2
19 | CD40L-57 (VHH) VHH: EVQLVESGGGLVQPGGSLRLSCAASGFTFSRYEMGWFRQAPGKEREFVATITEGGARNYADSVKGRFTISADNSKNTAYLQMNSLKPEDTAVYYCAAVYVSTWGNGYDWGQGTLVTVSS | 2.92 | 0.000769 | 263000 | 64
20 | CD40L-28 (VHH) VHH: EVQLVESGGGLVQPGGSLRLSCAASGVTVDYSGMGWFRQAPGKEREFVSAISSYSGNTYYADSVKGRFTISADNSKNTAYLQMNSLKPEDTAVYYCAAAYGGGLYRDPRSYDWGQGTLVTVSS | 2.87 | 0.000445 | 155000 | 41.9
21 | CD40L-29 (VHH) VHH: EVQLVESGGGLVQPGGSLRLSCAASGRTFSSYAMGWFRQAPGKEREFVAVIYSSDGSTLYADSVKGRFTISADNSKNTAYLQMNSLKPEDTAVYYCAAEHTLGRPSRSQINYLWGQGTLVTVSS | 33.6 | 0.000801 | 23800 | 4.7
22 | CD40L-34 (VHH) VHH: EVQLVESGGGLVQPGGSLRLSCAASGRTISNAAMGWFRQAPGKEREFVAAISFRGDSAIYADSVKGRFTISADNSKNTAYLQMNSLKPEDTAVYYCARDAAGDYYYNLDVWGQGTLVTVSS | 9.87 | 0.000637 | 64500 | 76.7
23 | CD40L-35 (VHH) VHH: EVQLVESGGGLVQPGGSLRLSCAASGLTFSSYWMGWFRQAPGKERELVASITDGGSTNYADSVKGRFTISADNSKNTAYLQMNSLKPEDTAVYYCAVQVNGIWAWGQGTLVTVSS | ≤ 0.0842 | ≤ 1e-05 | 119000 | 29.5
24 | CD40L-38 (VHH) VHH: EVQLVESGGGLVQPGGSLRLSCAASGVTFSSYDMGWFRQAPGKEREFVAAINWSGGSRSYADSVKGRFTISADNSKNTAYLQMNSLKPEDTAVYYCAIPRFRPYEYDWGQGTLVTVSS | 8.61 | 0.00052 | 60300 | 49
25 | CD40L-39 (VHH) VHH: EVQLVESGGGLVQPGGSLRLSCAASGGTLDDYVMGWFRQAPGKEREFVASIGRSGNSAVNTDYADSVKGRFTISADNSKNTAYLQMNSLKPEDTAVYYCAREPYSGTYYPRYWGQGTLVTVSS | 0.194 | 6.25e-05 | 322000 | 114
